According to paper PMC12478413 (bioRxiv, 2025):
Like-named read-outs stand apart in the source and are kept apart here. Blank lines part the entries; values can stand above or below the molecule they belong to.

Tests used:
[1] = target: recombinant GCase E326K variant (human GBA1 residues A40-Q536) (human); experiment: SEC
[2] = target: recombinant human LIMP2 lumenal domain (residues 36-430) (human) (UniProt Q14108); experiment: SEC-MALS
[3] = target: recombinant human LIMP2 lumenal domain (residues 36-430) (human) (UniProt Q14108); experiment: SPR
[4] = target: recombinant GCase E326K variant (human GBA1 residues A40-Q536) (human); experiment: dynamic light scattering
[5] = target: recombinant human LIMP2 lumenal domain (residues 36-430) (human) (UniProt Q14108); experiment: SPR; remark: listed apart in the source
[6] = target: recombinant GCase E326K+R329A double mutant (human); experiment: SEC
[7] = target: T1, recombinant WT GCase (glucocerebrosidase, human GBA1 residues A40-Q536) (human, UniProt P04062 40-536); experiment: SPR
T1 sequence (looked up): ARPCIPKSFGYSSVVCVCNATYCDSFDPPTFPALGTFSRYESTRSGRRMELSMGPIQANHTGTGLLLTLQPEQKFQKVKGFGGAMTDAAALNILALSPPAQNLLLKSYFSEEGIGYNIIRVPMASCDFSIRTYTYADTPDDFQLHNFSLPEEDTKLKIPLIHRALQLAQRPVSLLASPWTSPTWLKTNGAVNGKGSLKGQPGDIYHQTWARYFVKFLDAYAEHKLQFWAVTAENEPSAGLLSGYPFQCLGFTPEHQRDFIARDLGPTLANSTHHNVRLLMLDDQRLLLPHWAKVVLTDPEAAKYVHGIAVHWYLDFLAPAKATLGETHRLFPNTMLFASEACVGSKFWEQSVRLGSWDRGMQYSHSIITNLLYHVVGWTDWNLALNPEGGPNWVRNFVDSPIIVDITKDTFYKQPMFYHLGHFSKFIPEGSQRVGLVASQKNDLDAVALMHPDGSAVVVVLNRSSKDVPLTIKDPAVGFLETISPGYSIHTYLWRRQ

[8] = target: T1, recombinant WT GCase …; experiment: SPR; remark: listed apart in the source

stoichiometry N [1]: 2
stoichiometry N (GCase E326K : LIMP2 (2:2)) [2]: 1
Kd [3]: 2.44 nM
stoichiometry N [4]: 2
Kd [5]: 3.89 nM
Molecule: recombinant GCase E326K variant (human GBA1 residues A40-Q536) (enzyme)

stoichiometry N [6]: 2
Molecule: recombinant GCase E326K+R329A double mutant (enzyme)

Kd [7]: 14.4 nM
Kd [8]: 19.9 nM
B1: recombinant human LIMP2 lumenal domain (residues 36-430) (domain or fragment, UniProt Q14108 36-430, looked up)
chain: SIEKKIVLRNGTEAFDSWEKPPLPVYTQFYFFNVTNPEEILRGETPRVEEVGPYTYRELRNKANIQFGDNGTTISAVSNKAYVFERDQSVGDPKIDLIRTLNIPVLTVIEWSQVHFLREIIEAMLKAYQQKLFVTHTVDELLWGYKDEILSLIHVFRPDISPYFGLFYEKNGTNDGDYVFLTGEDSYLNFTKIVEWNGKTSLDWWITDKCNMINGTDGDSFHPLITKDEVLYVFPSDFCRSVYITFSDYESVQGLPAFRYKVPAEILANTSDNAGFCIPEGNCLGSGVLNVSICKNGAPIIMSFPHFYQADERFVSAIEGMHPNQEDHETFVDINPLTGIILKAAKRFQINIYVKKLDDFVETGDIRTMVFPVMYLNESVHIDKETASRLKSMIN
modifications: biotin on the Avitag (BirA, for SPR)
